In one test the target is T1, human IL-17RC.Fc (human).
T1 construct: also called hIL-17RC.Fc
In words: indirect sandwich ELISA: IL-17RC.Fc captured on goat anti-human IgG-Fc, biotinylated cytokine titrated, Poly-HRP streptavidin. The protocol: (§1) Binding of human IL-17F, hIL-17A or hIL-17F/IL-17A to human IL-17R.Fc (hIL-17R.Fc) and IL-17RC.Fc (hIL-17RC.Fc) was determined by indirect sandwich ELISA. ELISA plates (Costar, Cambridge Mass.) were coated overnight with 10 μg/ml goat anti-human IgG-Fc (Bethyl Laboratories, Montgomery, Tex.). Human IL-17R.Fc or hIL17-RC.Fc was then loaded at 6 ng/ml and 30 ng/ml, respectively, for 3 hours, followed by serial dilutions of biotinylated IL-17A, IL-17F or IL-17F/IL-17A for 2 hours. The plate was developed with Poly-HRP Streptavidin (Pierce Biotechnology, Rockford, Ill.) and TMB Substrate (KPL Labs, Gaithersburg, Md.).
(§2) The binding of hIL-17F, hIL-17A or hIL-17F/IL-17A to hIL-17R.Fc and/or hIL-17RC.Fc was evaluated by indirect sandwich ELISA. All three cytokines bound to hIL-17RC.Fc with approximately the same EC₅₀ of 18-25 ng/ml (FIG. 1B). However, the EC₅₀ for the three cytokines were different for binding to hIL-17R.Fc. The tightest binding occurred between hIL-17A and hIL-17R.Fc with an EC₅₀ of 25 ng/ml. Human IL-17F bound weakly to hIL-17R.Fc with an EC₅₀ greater than 2000 ng/ml.

For a further test, the target named is T2, human IL-17R.Fc (human).
T2 construct: also called hIL-17R.Fc; IL-17RA.Fc
T2 sequence (chain, as listed by the source limits assumed): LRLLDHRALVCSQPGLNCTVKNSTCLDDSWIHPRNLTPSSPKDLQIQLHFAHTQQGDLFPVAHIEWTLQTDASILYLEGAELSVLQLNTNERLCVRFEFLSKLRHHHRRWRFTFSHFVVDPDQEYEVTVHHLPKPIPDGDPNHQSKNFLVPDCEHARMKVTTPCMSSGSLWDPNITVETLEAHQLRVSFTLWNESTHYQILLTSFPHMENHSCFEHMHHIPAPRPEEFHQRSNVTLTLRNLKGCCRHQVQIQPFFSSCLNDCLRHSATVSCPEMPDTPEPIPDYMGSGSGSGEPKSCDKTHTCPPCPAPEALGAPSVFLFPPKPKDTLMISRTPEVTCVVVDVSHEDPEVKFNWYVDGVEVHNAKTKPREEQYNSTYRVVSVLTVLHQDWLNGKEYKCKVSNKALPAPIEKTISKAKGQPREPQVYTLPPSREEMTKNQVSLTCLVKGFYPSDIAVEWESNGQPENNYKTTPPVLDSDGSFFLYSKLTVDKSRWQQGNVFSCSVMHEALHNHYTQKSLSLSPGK
In words: indirect sandwich ELISA; receptor.Fc captured on goat anti-human IgG-Fc, biotinylated cytokine titrated. The protocol: as §1, §2
Background: ELISA stands for enzyme-linked immunosorbent assay.

Experimental findings from patent US20080241130A1 (published 2008) are described below.

A word on the EC50 (read off the curve): it is the midpoint of the concentration-response curve. Read a low EC50 (read off the curve) as greater potency. One may read the EC50 as the concentration that produces a half-maximal response.

T1 sequence (chain, as listed by the source limits assumed): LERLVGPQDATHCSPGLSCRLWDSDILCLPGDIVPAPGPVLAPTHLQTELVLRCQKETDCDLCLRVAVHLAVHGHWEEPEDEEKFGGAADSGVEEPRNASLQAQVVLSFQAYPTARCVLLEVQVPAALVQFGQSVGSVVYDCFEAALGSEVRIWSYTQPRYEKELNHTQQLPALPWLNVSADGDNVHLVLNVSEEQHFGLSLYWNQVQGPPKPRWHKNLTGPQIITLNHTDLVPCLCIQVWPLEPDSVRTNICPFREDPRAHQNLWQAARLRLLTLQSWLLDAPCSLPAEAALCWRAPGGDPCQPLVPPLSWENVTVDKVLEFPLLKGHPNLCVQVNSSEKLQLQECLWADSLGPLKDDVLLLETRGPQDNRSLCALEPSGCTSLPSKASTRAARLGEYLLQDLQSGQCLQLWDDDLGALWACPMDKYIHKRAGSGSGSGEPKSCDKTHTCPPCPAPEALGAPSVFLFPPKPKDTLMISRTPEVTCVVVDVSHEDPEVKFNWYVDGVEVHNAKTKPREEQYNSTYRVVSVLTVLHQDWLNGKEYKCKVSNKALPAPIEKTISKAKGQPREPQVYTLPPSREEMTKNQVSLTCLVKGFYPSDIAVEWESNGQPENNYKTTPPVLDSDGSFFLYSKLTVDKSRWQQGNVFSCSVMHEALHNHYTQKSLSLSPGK

B1: human IL-17F (ligand)
chain: RKIPKVGHTFFQKPESCPPVPGGSMKLDIGIINENQRVSMSRNIESRSTSPWNYTVTWDPNRYPSEVVQAQCRNLGCINAQGKEDISMNSVPIQQETLVVRRKHQGCSVSFQLEKVLVTVGCTCVTPVIHHVQ
modifications: biotinylated in the ELISA (FluoReporter Mini-biotin-XX kit); sites not stated
notes: Homodimer; also called hIL-17F
Turning to B1, in the test with human IL-17RC.Fc, the “EC50 (read off the curve)” value was ~0.02 µg/mL. In addition, the EC50 in the test with human IL-17R.Fc is > 2 µg/mL.
